Laboratory results: the supplement of paper PMC10724198
± gives the standard deviation of the averaged measurements.

Legend:
[1] = system: Saccharomyces cerevisiae; experiment: protein stability index of tFT-peptide fusion (C-terminal peptide) (PSI (0-1 scale)); higher = more stable (slower turnover); settings: genetic background: wild type; temperature: 30 C
[2] = system: Saccharomyces cerevisiae; experiment: as above
Description: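 MPS profiling in S. cerevisiae of the tFT-X12 degron library: putative degron peptides plus stable controls, 12 aa, fused to the C-terminus of a sfGFP-mCherry timer. Cells are FACS-sorted into 8 mCherry/sfGFP bins and deep-sequenced. PSI runs from 0 (unstable) to 1 (stable). Backgrounds are wild type, das1Δ and doa10Δ at 30 °C, and wild type, das1Δ, cdc34-1 and cdc53-1 at 37 °C; 2-3 technical replicates each.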

[3] = genetic background: cdc34-1, temperature: 37 C
[4] = genetic background: cdc53-1, temperature: 37 C
[5] = genetic background: das1 deletion, temperature: 30 C
[6] = genetic background: das1 deletion, temperature: 37 C
[7] = genetic background: doa10 deletion, temperature: 30 C
[8] = genetic background: wild type, temperature: 30 C
[9] = genetic background: wild type, temperature: 37 C
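Further: PSI is a weighted mean of sequencing reads over stability bins, variants kept only with over 10 reads, mCherry proximal and sfGFP distal, peptide attached via GGGS linker.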

Sequence | protein stability index [1] | protein stability index [2, 3] | protein stability index [2, 4] | protein stability index [2, 5] | protein stability index [2, 6] | protein stability index [2, 7] | protein stability index [2, 8] | protein stability index [2, 9]
PCPAPRPPSPSA | 0.435 ± 0.03 | 0.664 ± 0.078 | 0.721 ± 0.05 | 0.653 ± 0.0096 | 0.715 ± 0.0076 | 0.668 ± 0.031 | 0.682 ± 0.023 | 0.694 ± 0.014
PDCRPPLVRCLL | 0.796 ± 0.03 | 0.9585 ± 0.0082 | 0.902 ± 0.071 | 0.827 ± 0.028 | 0.9164 ± 0.0047 | 0.8334 ± 0.0043 | 0.822 ± 0.035 | 0.936 ± 0.019
PFALTPPPSPRS | 0.426 ± 0.043 | 0.745 ± 0.011 |  | 0.384 ± 0.024 | 0.583 ± 0.0083 | 0.356 ± 0.024 | 0.366 ± 0.0092 | 0.52 ± 0.046
PFFCFLLFCFSL | 0.455 ± 0.037 | 0.477 ± 0.032 | 0.498 ± 0.0033 | 0.439 ± 0.033 | 0.5465 ± 0.00098 | 0.459 ± 0.0093 | 0.419 ± 0.027 | 0.5292 ± 0.0024
PFFLLAGITVAC | 0.273 ± 0.016 | 0.0507 ± 0.023 | 0.0625 ± 0.026 | 0.177 ± 0.031 | 0.203 ± 0.0027 | 0.139 ± 0.0038 | 0.15 ± 0.025 | 0.16 ± 0.0058
PFLCLPFLLVSR | 0.41 ± 0.034 | 0.38 ± 0.022 | 0.4056 ± 0.0025 | 0.35 ± 0.029 | 0.49 ± 0.0032 | 0.467 ± 0.017 | 0.363 ± 0.027 | 0.47142 ± 0.0004
PFPTPPPIPRSP | 0.464 ± 0.05 | 0.665 ± 0.012 | 0.7375 ± 0.0026 | 0.686 ± 0.015 | 0.729 ± 0.0085 | 0.706 ± 0.035 | 0.696 ± 0.012 | 0.7051 ± 0.0068
PGRHSVRFVFVC | 0.208 ± 0.06 | 0.349 ± 0.023 | 0.519 ± 0.046 | 0.444 ± 0.019 | 0.581 ± 0.024 | 0.113 ± 0.0067 | 0.112 ± 0.028 | 0.143 ± 0.0068
PKRNNRKAQQIS | 0.405 ± 0.032 | 0.61 ± 0.015 | 0.698 ± 0.038 | 0.689 ± 0.019 | 0.704 ± 0.06 | 0.249 ± 0.016 | 0.254 ± 0.043 | 0.493 ± 0.019
PPAPTPFPPSPR | 0.593 ± 0.14 | 0.687 ± 0.037 | 0.7216 ± 0.0033 | 0.669 ± 0.034 | 0.741 ± 0.018 | 0.697 ± 0.026 | 0.672 ± 0.024 | 0.728 ± 0.01
PPLPPPPASVPP | 0.503 ± 0.016 | 0.675 ± 0.022 | 0.719 ± 0.025 | 0.641 ± 0.011 | 0.7088 ± 0.0051 | 0.6476 ± 0.0014 | 0.682 ± 0.041 | 0.68 ± 0.03
PPPPPPPFLFFL | 0.496 ± 0.061 | 0.706 ± 0.018 | 0.795 ± 0.019 | 0.643 ± 0.013 | 0.747 ± 0.013 | 0.458 ± 0.015 | 0.472 ± 0.022 | 0.61 ± 0.013
PPTRVPVTLFLV | 0.153 ± 0.013 | 0.395 ± 0.013 | 0.673 ± 0.017 | 0.619 ± 0.0097 | 0.6761 ± 0.0013 | 0.0767 ± 0.022 | 0.0832 ± 0.011 | 0.09 ± 0.0034
PRLWLYCLIISL | 0.2062 ± 0.00075 | 0.173 ± 0.032 | 0.214 ± 0.016 | 0.186 ± 0.039 | 0.335 ± 0.015 | 0.157 ± 0.011 | 0.14 ± 0.03 | 0.277 ± 0.022
PVCRQVGVRLVA | 0.456 ± 0.045 | 0.582 ± 0.022 | 0.625 ± 0.052 | 0.525 ± 0.025 | 0.6482 ± 0.0047 | 0.265 ± 0.0046 | 0.311 ± 0.034 | 0.466 ± 0.039
PVSEPCAWRIIA | 0.1098 ± 0.00053 | 0.374 ± 0.015 | 0.689 ± 0.026 | 0.6769 ± 0.0044 | 0.699 ± 0.018 | 0.0726 ± 0.0028 | 0.0645 ± 0.018 | 0.0736 ± 0.0023
PWFCYVQLVVPV | 0.309 ± 0.0036 | 0.226 ± 0.02 | 0.266 ± 0.0075 | 0.232 ± 0.035 | 0.349 ± 0.0058 | 0.188 ± 0.0072 | 0.221 ± 0.03 | 0.313 ± 0.0036
PYPPTSLPPTWQ | 0.726 ± 0.026 | 0.672 ± 0.043 | 0.7459 ± 0.0012 | 0.652 ± 0.0095 | 0.711 ± 0.017 | 0.678 ± 0.023 | 0.671 ± 0.038 | 0.701 ± 0.025
QGGTWKKLVKMI | 0.226 ± 0.035 | 0.573 ± 0.05 | 0.6963 ± 0.006 | 0.643 ± 0.055 | 0.7165 ± 0.0019 | 0.0823 ± 0.02 | 0.101 ± 0.018 | 0.165 ± 0.019
QNVKRIVRHMLT | 0.374 ± 0.018 | 0.62 ± 0.056 | 0.691 ± 0.041 | 0.658 ± 0.008 | 0.723 ± 0.04 | 0.207 ± 0.018 | 0.251 ± 0.022 | 0.41 ± 0.027
QVSHLFAAVQLA | 0.4485 ± 0.00088 | 0.6103 ± 0.0049 | 0.687 ± 0.018 | 0.555 ± 0.0081 | 0.65 ± 0.0091 | 0.337 ± 0.021 | 0.364 ± 0.051 | 0.573 ± 0.011
QWRMLTCLMERL | 0.379 ± 0.012 | 0.446 ± 0.034 | 0.553 ± 0.063 | 0.472 ± 0.015 | 0.4882 ± 0.0037 | 0.398 ± 0.056 | 0.379 ± 0.012 | 0.496 ± 0.03
RAPPPSSLLSPP | 0.402 ± 0.013 | 0.6612 ± 0.0063 | 0.724 ± 0.016 | 0.6499 ± 0.0057 | 0.718 ± 0.027 | 0.687 ± 0.0087 | 0.671 ± 0.029 | 0.706 ± 0.037
RARRFGKWERSG | 0.4453 ± 0.0039 | 0.644 ± 0.032 | 0.761 ± 0.025 | 0.639 ± 0.013 | 0.731 ± 0.024 | 0.33 ± 0.03 | 0.377 ± 0.03 | 0.544 ± 0.0099
RDPLAPLLLAIP | 0.698 ± 0.01 | 0.65 ± 0.038 | 0.717 ± 0.015 | 0.587 ± 0.011 | 0.7006 ± 0.0047 | 0.596 ± 0.04 | 0.609 ± 0.013 | 0.6816 ± 0.0035
RDYIAAKLVVCG | 0.35 ± 0.091 | 0.4103 ± 0.0032 | 0.425 ± 0.029 | 0.304 ± 0.03 | 0.488 ± 0.0021 | 0.267 ± 0.0034 | 0.318 ± 0.027 | 0.4612 ± 0.0016
REAFVVLAVFFH | 0.328 ± 0.04 | 0.199 ± 0.0062 | 0.321 ± 0.054 | 0.226 ± 0.019 | 0.406 ± 0.02 | 0.193 ± 0.0039 | 0.199 ± 0.03 | 0.315 ± 0.05
RFCLPLRLPVTT | 0.4497 ± 0.0012 | 0.533 ± 0.028 | 0.5626 ± 0.0042 | 0.461 ± 0.037 | 0.5865 ± 0.0022 | 0.439 ± 0.0083 | 0.458 ± 0.016 | 0.589 ± 0.045
RFFVLSFFFLVS | 0.282 ± 0.024 | 0.215 ± 0.013 | 0.335 ± 0.069 | 0.224 ± 0.023 | 0.416 ± 0.014 | 0.209 ± 0.01 | 0.212 ± 0.029 | 0.384 ± 0.0071
RFGLPLLVVTWL | 0.468 ± 0.043 | 0.445 ± 0.0073 | 0.46 ± 0.0074 | 0.394 ± 0.028 | 0.5314 ± 0.005 | 0.4591 ± 0.0032 | 0.402 ± 0.0044 | 0.512 ± 0.011
